# Patent publication US20220017615A1 (SHANGHAI PHARMAEXPLORER, published 2022)
# B1: 54G8G6 (antibody, V domains shown)
# VH: QVQLQQPGADLVKPGASVKMSCKASGYTFTSYWIIWVKQRPGQGLEWIGDINPGRGSPNYNEKFKRKATLTVDTSSSTAYMQLSSLTSEDSAVYYCVRGGLRRFDHWGQGTLVTVSA
# VL: ENVLTQSPAIMSASPGEKVTMTCRASSSVSSSYLHWYQQKSGASPKLWIYSTSTLASGVPARFSGSGSGTSYSLTISSVEAEDAATYYCQQYSGYPYTFGGGTKLEIK
# notes: Murine hybridoma antibody purified on protein G
# B2: 95E2D10 (antibody, V domains shown)
# VH: QIQLQQSGPELVKPGASMKISCKASGYPFTDYYIHWVKQKPGQGLEWIGWIYPGSGNNKYNEKFKGKATLTVDTSPSTVYMQLSSLTSEDTAVYFCARRAGNYFDYWGQGTTLTVSS
# VL: NIVMTQSPKSMSRSVGERVTLSCRASENVRTYVFWYQQKPGLSPKLLIYGASNRYIGVPDRFTGSGSATDFTLTISSVQAEDLADYHCGQSYSYPLTFGAGTKLELK
# notes: as for B1
# B3: 51E2F11 (antibody, V domains shown)
# VH: EVQLQQSGAELVKPGASVKLSCTASGFNIKDHYIHWMNQRTEQGLEWIGRIDPDDGETRYAPKFRGKATLTADTSSNTAYLQFSSLTSEDTAVYHCTRATTITRDWYFDVWGTGTTVTVSS
# VL: DIVMTQSQKFMSTSVGDRVSITCKASQNVRTSVAWYQQKPGQSPKALIYLASNRHTGIPDRFTGSGSGTDFTLTIRNVQSEDLADYFCLQHWDYPLTFGAGTKLELK
# notes: as for B1
# Legend:
# [1] = target: T1, His-tagged CD47 recombinant protein, CD47-His (human, UniProt Q08722 19-141, limits assumed); experiment: ELISA on coated CD47-His; Ab 0.533 nM
# T1 construct: it is not restated for CD47-His; also called human CD47-His protein; antigen CD47-His; not shown: His tag
# [2] = target: T2, human CD47, full length, on transfected cells (human, UniProt Q08722 19-323); experiment: FACS CHOK1-hCD47; Ab 200 nM
# T2 construct: whole, on cells; also called CHOK1-hCD47
# [3] = target: T3, biotin-labeled CD47 extracellular domain protein (CD47-ECD) (UniProt Q08722 19-139, limits assumed, biotin-labeled (sites not given)); experiment: blocking ELISA, biotin-CD47-ECD on coated SIRPα-hFc; Ab 8 nM
# T3 construct: extracellular domain; also called CD47 protein
# [4] = target: T4, cynomolgus CD47, on CHOK1-cCD47 stable cell line (cynomolgus); experiment: FACS CHOK1-cCD47; Ab 0.32 nM
# T4 construct: whole, on cells; check before use; also called CHOK1/cynoCD47; monkey-derived CD47
# Procedure: (§1) The CHOK1-hCD47 stable cell lines and CHOK1-cCD47 stable cell lines were expanded to 90% confluence in a T-75 cell culture flask, the medium was exhausted, washed twice with HBSS buffer (Hanks balanced salt solution) (purchased from Invitrogen), and then treated and collected with enzyme-free cell dissociation solution (Versene solution: purchased from Life technology). The cells were washed twice with HBSS buffer. After counted, the cells were diluted with HBSS to 2×10⁶ cells per ml, added with 1% goat serum blocking solution, wherein the percentage was the mass percantage, incubated on ice for 30 minutes, and then washed twice with HBSS by centrifugation. […] The plate was washed 3 times with FACS buffer by centrifugation, added with 100 μl fixative solution [4% (v/v) Paraformaldehyde] per well to suspend the cells. 10 minutes later, it was washed twice with FACS buffer by centrifugation. The cells were suspended with 100 microliters of FACS buffer, FACS (FACS Calibur, purchased from BD) was used for detection and the results were analyzed.
# [5] = target: T2, human CD47, full length, on transfected …; experiment: FACS CHOK1-hCD47; Ab 1.6 nM
# Procedure: as §1
# [6] = target: T3, biotin-labeled CD47 extracellular …; experiment: blocking ELISA, biotin-CD47-ECD on coated SIRPα-hFc; Ab 0.064 nM
# Procedure: (§2) The plate was sealed with plastic film and incubated at 4° C. overnight. The plate was washed twice with plate washing solution [PBS+0.01% (v/v) Tween20] on the next day, and blocking solution [PBS+0.01% (v/v) Tween20 +1% (w/w) BSA] was added to block it at room temperature for 2 hours. […] After incubation at 37° C. for 2 hours, the plate was washed three times with the plate washing solution [PBS+0.01% (v/v) Tween 20]. HRP (horseradish peroxidase) labeled avidin diluent (purchased from Sigma) was added as 100 microliters per well, and after the plate was incubated for 2 hours at 37° C., it was washed 3 times with washing solution [PBS+0.01% (v/v) Tween 20]. 100 μl of TMB substrate was added to each well. After incubated at room temperature for 30 minutes, the plate was added with 100 μl of stop solution (1.0N HCl) to each well.
# [7] = target: T3, biotin-labeled CD47 extracellular …; experiment: blocking ELISA, biotin-CD47-ECD on coated SIRPα-hFc; Ab 0.0128 nM
# Procedure: as §2
# [8] = target: T2, human CD47, full length, on transfected …; experiment: FACS CHOK1-hCD47; Ab 0.064 nM
# Procedure: as §1
# [9] = target: T2, human CD47, full length, on transfected …; experiment: FACS CHOK1-hCD47; Ab 0 nM (background)
# Procedure: as §1
# [10] = target: T4, cynomolgus CD47, on CHOK1-cCD47 stable …; experiment: FACS CHOK1-cCD47; Ab 0 nM (background)
# Procedure: as §1
# [11] = target: T4, cynomolgus CD47, on CHOK1-cCD47 stable …; experiment: FACS CHOK1-cCD47; Ab 40 nM
# Procedure: as §1
# [12] = target: T4, cynomolgus CD47, on CHOK1-cCD47 stable …; experiment: FACS CHOK1-cCD47; Ab 200 nM
# Procedure: as §1
# [13] = target: T3, biotin-labeled CD47 extracellular …; experiment: blocking ELISA, biotin-CD47-ECD on coated SIRPα-hFc; Ab 1.6 nM
# Procedure: as §2
# [14] = target: T2, human CD47, full length, on transfected …; experiment: FACS CHOK1-hCD47; Ab 8 nM
# Procedure: as §1
# [15] = target: T2, human CD47, full length, on transfected …; experiment: FACS CHOK1-hCD47; Ab 0.32 nM
# [16] = target: T1, His-tagged CD47 recombinant protein, …; experiment: ELISA on coated CD47-His; Ab 2.667 nM
# Procedure: (§3) The plate was sealed with plastic film and incubated at 4° C. overnight. The plate was washed twice with plate washing solution [PBS+0.01% (v/v) Tween20] the next day, and blocking solution [PBS+0.01% (v/v) Tween20 +1% (w/w) BSA] was added to block it at room temperature for 2 hours. […] After incubation at 37° C. for 2 hours, the plates were washed three times with plate washing solution [PBS+0.01% (v/v) Tween 20]. HRP (horseradish peroxidase) labeled secondary antibody (purchased from Sigma) was added, incubated at 37° C. for 2 hours, and then washed three times with plate washing solution [PBS+0.01% (v/v) Tween 20]. 1000 of TMB substrate was added to each well. After incubated at room temperature for 30 minutes, the plate was added with 100 μl of stop solution (1.0N HCl) to each well.
# [17] = target: T3, biotin-labeled CD47 extracellular …; experiment: blocking ELISA, biotin-CD47-ECD on coated SIRPα-hFc; Ab 200 nM
# Procedure: as §2
# [18] = target: T4, cynomolgus CD47, on CHOK1-cCD47 stable …; experiment: FACS CHOK1-cCD47; Ab 0.064 nM
# [19] = target: T2, human CD47, full length, on transfected …; experiment: FACS CHOK1-hCD47; Ab 0.0128 nM
# Procedure: as §1
# [20] = target: T1, His-tagged CD47 recombinant protein, …; experiment: ELISA on coated CD47-His; Ab 0.004 nM
# Procedure: as §3
# [21] = target: T4, cynomolgus CD47, on CHOK1-cCD47 stable …; experiment: FACS CHOK1-cCD47; Ab 8 nM
# Procedure: as §1
# [22] = target: T4, cynomolgus CD47, on CHOK1-cCD47 stable …; experiment: FACS CHOK1-cCD47; Ab 1.6 nM
# Procedure: as §1
# [23] = target: T3, biotin-labeled CD47 extracellular …; experiment: blocking ELISA, biotin-CD47-ECD on coated SIRPα-hFc; Ab 40 nM
# Procedure: as §2
# [24] = target: T4, cynomolgus CD47, on CHOK1-cCD47 stable …; experiment: FACS CHOK1-cCD47; Ab 0.0128 nM
# Procedure: as §1
# [25] = target: T3, biotin-labeled CD47 extracellular …; experiment: blocking ELISA, biotin-CD47-ECD on coated SIRPα-hFc; Ab 0.32 nM
# Procedure: as §2
# [26] = target: T1, His-tagged CD47 recombinant protein, …; experiment: ELISA on coated CD47-His; Ab 66.667 nM
# [27] = target: T1, His-tagged CD47 recombinant protein, …; experiment: ELISA on coated CD47-His; Ab 13.333 nM
# Procedure: as §3
# [28] = target: T1, His-tagged CD47 recombinant protein, …; experiment: ELISA on coated CD47-His; Ab 0.107 nM
# Procedure: as §3
# [29] = target: T3, biotin-labeled CD47 extracellular …; experiment: blocking ELISA, biotin-CD47-ECD on coated SIRPα-hFc; Ab 0 nM
# Procedure: as §2
# [30] = target: T1, His-tagged CD47 recombinant protein, …; experiment: ELISA on coated CD47-His; Ab 0.021 nM
# Procedure: as §3
# [31] = target: T1, His-tagged CD47 recombinant protein, …; experiment: ELISA on coated CD47-His; Ab 0 nM (background)
# Procedure: as §3
# [32] = target: T2, human CD47, full length, on transfected …; experiment: FACS CHOK1-hCD47; Ab 40 nM
# Procedure: as §1
Binder,OD450 nm [1],mean fluorescence intensity [2],OD450 nm of CD47 bound to SIRPα [3],mean fluorescence intensity [4],mean fluorescence intensity [5],OD450 nm of CD47 bound to SIRPα [6],OD450 nm of CD47 bound to SIRPα [7],mean fluorescence intensity [8],mean fluorescence intensity [9],mean fluorescence intensity [10],mean fluorescence intensity [11],mean fluorescence intensity [12],OD450 nm of CD47 bound to SIRPα [13],mean fluorescence intensity [14],mean fluorescence intensity [15],OD450 nm [16],OD450 nm of CD47 bound to SIRPα [17],mean fluorescence intensity [18],mean fluorescence intensity [19],OD450 nm [20],other results
B1,2.99,16700,0.09,3250,6180,1.76,2.89,561,23.1,76.8,21200,17200,0.13,13500,1940,3,0.07,908,216,0.18,mean fluorescence intensity [21]: 21300; mean fluorescence intensity [22]: 9570; OD450 nm of CD47 bound to SIRPα [23]: 0.06; mean fluorescence intensity [24]: 278; OD450 nm of CD47 bound to SIRPα [25]: 0.31; OD450 nm [26]: 2.86; OD450 nm [27]: 2.94; OD450 nm [28]: 2.1; OD450 nm of CD47 bound to SIRPα [29]: 2.9; OD450 nm [30]: 0.62; OD450 nm [31]: 0.05; mean fluorescence intensity [32]: 17700
B2,2.96,15800,0.09,3040,6140,2.84,2.96,408,23.3,76,17500,21200,0.52,12300,2490,3.01,0.06,734,221,0.17,mean fluorescence intensity [21]: 21400; mean fluorescence intensity [22]: 7990; OD450 nm of CD47 bound to SIRPα [23]: 0.06; mean fluorescence intensity [24]: 223; OD450 nm of CD47 bound to SIRPα [25]: 2; OD450 nm [26]: 2.93; OD450 nm [27]: 2.98; OD450 nm [28]: 2.07; OD450 nm of CD47 bound to SIRPα [29]: 2.94; OD450 nm [30]: 0.58; OD450 nm [31]: 0.05; mean fluorescence intensity [32]: 17300
B3,2.95,14600,0.1,2880,6460,2.77,2.94,541,22.6,72.4,13300,9460,0.32,12700,2000,3,0.07,288,174,0.16,mean fluorescence intensity [21]: 10600; mean fluorescence intensity [22]: 7190; OD450 nm of CD47 bound to SIRPα [23]: 0.08; mean fluorescence intensity [24]: 245; OD450 nm of CD47 bound to SIRPα [25]: 1.57; OD450 nm [26]: 2.95; OD450 nm [27]: 2.97; OD450 nm [28]: 1.83; OD450 nm of CD47 bound to SIRPα [29]: 2.95; OD450 nm [30]: 0.53; OD450 nm [31]: 0.05; mean fluorescence intensity [32]: 15900
